The domain aggregation screens of Martell et al. (2025)

experiment: soluble fraction after stress (log2 fold change); higher = more stays soluble; pooled small domains, quantitative proteomics; conditions: stress: 50 degC
Outline: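 After stress at 50°C, the amount of each protein still soluble was measured. This was done on pooled custom libraries of small protein domains, using high-throughput quantitative proteomics. The figure given is a base-two log fold change and stands for aggregation propensity, with higher values meaning more protein stays in solution.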

Sequence | soluble fraction (log2)
HMEEILLSVKADGTYWVDQKEVTLDEVGALLDKEPDRLLNIFMDEKVPVRHFINVVDIAKVKREGRFII | -0.453
HMNLFNEIEKQYQALQDRSSASLVDLRHLLLDIEELVNSPDYQALAPDQRSTLQAARKELMRRIQKQEN | 0.213
HMQSRRTPASLVERVRQLNGQYQDKEIAELLNREGIKTAHGNEFNAKRIEMIRRHNGISKHSAQ | 0.174
HMNPVVATTIILDGEIIKDNLAEANLSEEWLLEELKRQNFNDVKEVFYAEWLDGKQLFAYPYTK | -0.224
HMASVGTHIKRLRAAKRMTQEELAEQLHVTRQAVSAWETGKALPDVEMLERIAAALDADVTEVIYGA | 0.0402
HMSQPALSYAFAKAQGVIVTALGDVAEVARRKGSQPQALAEVRRIAGRPLALREVDDAAFDRLLQDHYARS | -0.243
HMDGMNEELYQKFFALVGNPDEGKRISQAKAAQALGYSSAVVSAYKNRTYNGNIKAFEDAVQAWLKREERR | 0.000413
HMDSVTMYATTGVNVRSGPSTSYSIVGGLDRGDKVTRIGTSGNWTKVVWGNGSAYVFSKYLQTGY | -1.81
HMNKYQFESKIHIYRATKRMTQQELADLVGVSRQTIMQLERNRYNPSMMLAYGIAKVFDVTIEDLFDFSEV | -2.05
HMEEPLIISIDSNGAVYLEVDSFKDQSIEMSSLREIIEKIILANPDIQVVVRGDSEVKYEKVMDLMSILQS | -1.29
HMTYYEGYYRKNQKGFGFVIVDGRDEDIYIDAKNMNGALNNDLVVVEELKGQNGKKTEGRVVKVLKKE | -0.185
HMNTTLQLDTILRLEKNAHLLENFVRAGFTDSELGKLTDADLLQIGVPKIGDRRRLLAALAERAH | -0.589
HMEQQEFIVPHDSEGQRLDLFLVSVLGTHSRSQIRKLIVNGHVKLENRAPRPNLPVRAGESVVVSMPEPT | 0.121
HMQVSIGERVKLARMSAGLNQRQLGKEMGMSAMAISKYETGEVVPNSRVLIQLSQTLHVPLDFFFRS | -2.69
HMENRLREVRDEIATRHGILPTVFINDRVLMNIHSKKPKDVSQLWQVDGISDEFIMKYGPEFIAEYKKKAK | 0.0216
HMDFEVGTVKWFNTKKGYGFITRDQGEDIFVHFRNIKGQGRRSLSDGERVSFVVTHGDKGLQADQVSP | -1.38
HMSTMKIVRVKSNLKIGQEITSKDIEVVEVGAYNMPSEVMKNSEDVIGKYASAEMIKGEYVLAAKISDTP | 0.479
HMASQFSLIVTQADAGMRLDSLLAVSGAYPSRSAAVKQIEAGKVLVNGLARSKRSIVAPGDTIVYEEIP | -0.584
HMFAERLKELRKMRRFSQHALAERLGISQQAVGKWETGKSTPDPATLREIADIFEVSVDLLLGR | -0.247

Sequence | soluble fraction (log2)
HMIYKLIADRLKNRINSDEFEVGDALPSEKALAGELEVSVMTIRKALTLLESEKLIVKRHGSGSYVARKSN | -0.429
HMAKTGMDALVGRRVVLTKAIAGEGEGLVAVDGDVWRATSPAGSAIPKGTEVRITGYRSIVLEVEPI | -0.184
HMTALISGNKAMQMLELSRHSFEKIVKDGLLSIVHEGDKKYYEIGEVEAFMGSDTYKELVNGV | -0.345
HMRTFFEIEQLKAYVGEEIQVKFEADSHKQTVLGKLISISEDFIEIENSKKGNLKISLDNYLTSKLIY | -1.6
HMGISGSDLEKMIRNILVNNTDVVETIKSGQDKKGKKQKFLQGLIMKEARGQTDPREAASLLAKLLE | -0.0715
HMIANDDEIRKVVLEVIEEQPKAVEDVKNGRDRILDFLVGQVMKKTRGKANPSLASNLMKEEIEK | 0.177
HMDVTSLDMLRFLMDQHGLRQQDLSELGSQGVVSEILAGKRELNLRHIGALARRFKVPPEVFLPA | -0.631
HMSADDLVSRTQAIVAELKDLEGPLLPILHSVQEAFGHVPDEVKPVIAEALNLSRAEVHGVVSFYHDFRAH | -0.112
HMQNRIVNTTQGLAADKRGLLVADETGHTTRPGIFASGDVVNGARTVVEAVAHSKIVAESMHQYMQ | ≥ 0.62
HMGTVRFYNKERGFGFVVSDDGESVFLPAKALPDGVSDLSPGTRVDYGAALGKKGSQ | 0.153
HMGNNKLVLSLAVALKNTPNFLKNYNYKISKDKKFIEILLSKQINEVSDIIINLKKNNINIVDLNIKKR | -1.51
HMKTTSYAKLLRFLRTERDLSQITVAKQLGLSRASYLALEHGSRELSLSEAVKVTTLYGIRIDDLIVNH | -3.48
HMGAWQQTGFFRNRENAESLAEVLRQRGFSPVVREDTRPSGTVYYAVLVPDDGTTAARLKDAGIDSYPV | 0.0695
HMRSNADALIGRTARVSQTIVENGFGRVALDGDDWKAQAADGSRIEEGQNVIVKDRDSIILTVEKE | 0.074
HMNKFADLAGNIIYNENGVEVFNFGKYKGQPVAEVFKKDIGYYGWIQNADFPRYTKKVFTAIQLKSK | -1.22
HMKLTESQLHKFTNDAVLAHIRNLIEFKGAFTEDDIEPIIRDRAAVYGIDLEDEDYKKVKTDVEYHFK | -0.000214
HMDKIEVVEVDMSKPYEDMTVTELQNVILDKLASNGPVTNQMKKDVSENIYHDSLVNWAKSF | 0.0697
HMAVETYRVKKSDTMQTIADRFGLSVEELLEYNQAYKTRELRARDILIIPSRKERKKLQQQKAQAAAQVVQ | -0.253
HMYQPLRDVIFETLRKAIVSGDIKPGERLMEVSLANQMGVSRTPVREAIRRLEAEGLVTMTPRKGTHVAE | -0.399
